{
  "source": "patent US6391637",
  "key": {"CD40/Fc fusion protein [1]": {"target": "T1, CD40/Fc fusion protein (human, UniProt P25942 21-193)", "T1 construct": "extracellular domain; also called sCD40/Fc; C40/Fc; not shown: remainder of the human IgG1 Fc region (hinge onwards), joined at a Bgl II site", "assay": "BIAcore biosensor; CD40/Fc captured on the chip; first experiment; K1 (site 1)", "description": "(§1) This example illustrates the binding affinities of several different CD40-L constructs. Affinity experiments were conducted by biospecific interaction analysis (BIA) using a biosensor, an instrument that combines a biological recognition mechanism with a sensing device or transducer. An exemplary biosensor is BIAcore™, from Pharmacia Biosensor AB (Uppsala, Sweden; see Fagerstam L.G., Techniques in Protein Chemistry II, ed. J. J. Villafranca, Acad. Press, NY, 1991). BIAcore™ uses the optical phenomenon surface plasmon resonance (Kretschmann and Raether, Z. Naturforschung, Teil. A 23:2135, 1968) to monitor the interaction of two biological molecules. Molecule pairs having affinity constants in the range 10^5 to 10^10 M^-1, and association rate constants in the range of 10^3 to 10^6 M^-1s^-1, are suitable for characterization with BIAcore™.\n(§2) The biosensor chips were coated with goat anti-human IgG_1 Fc, which was used to bind CD40/Fc (prepared as described in Example 1) to the chip. The different constructs of CD40-L were then added at increasing concentrations; the chip was regenerated between the different constructs by the addition of sodium hydroxide. Two separate experiments were performed. […] The resultant data were analyzed to determine the affinity and association rate constants of the different CD40-L constructs. […]", "T1 sequence (P25942 21-193)": "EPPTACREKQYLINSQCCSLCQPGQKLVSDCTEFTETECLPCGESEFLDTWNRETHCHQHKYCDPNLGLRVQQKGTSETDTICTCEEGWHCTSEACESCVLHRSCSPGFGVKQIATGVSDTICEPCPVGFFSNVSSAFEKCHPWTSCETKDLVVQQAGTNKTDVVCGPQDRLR"}, "CD40/Fc fusion protein [2]": {"target": "T1, CD40/Fc fusion protein", "assay": "BIAcore biosensor; CD40/Fc captured on the chip; first experiment; K2 (site 2)", "description": "as §1, §2"}, "CD40/Fc fusion protein [3]": {"target": "T2, CD40/Fc fusion protein (human, UniProt P25942 21-193)", "assay": "BIAcore biosensor; CD40/Fc captured on the chip; first experiment; K1 (site 1)", "description": "as §1, §2", "T2 sequence (P25942 21-193)": "as above"}, "CD40/Fc fusion protein [4]": {"target": "T2, CD40/Fc fusion protein", "assay": "BIAcore biosensor; CD40/Fc captured on the chip; first experiment; K2 (site 2)", "description": "as §1, §2"}, "CD40/Fc fusion protein [5]": {"target": "T2, CD40/Fc fusion protein", "assay": "biosensor assay substantially as in Example 22 (CD40/Fc captured on the chip); Affinity Ka"}},
  "data": [
    {"binder": "CD40-L/FC2 soluble human CD40-L/Fc fusion protein (Fc fusion, not shown: a dimerising Fc or GST; small tags and cut ends, also called dimeric human CD40-L; Human Dimer) DKIEDERNLHEDFVFMKTIQRCNTGERSLSLLNCEEIKSQFEGFVKDIMLNKEETKKENSFEMQKGDQNPQIAAHVISEASSKTTSVLQWAEKGYYTMSNNLVTLENGKQLTVKRQGLYYIYAQVTFCSNREASSQAPFIASLCLKSPGRFERILLRAANTHSSAKPCGQQSIHLGGVFELQPGASVFVNVTDPSQVSHGTGFTSFGLLKL", "values": [
      {"measurement": "Ka", "setting": "CD40/Fc fusion protein [1]", "result": "1.6e+11", "unit": "M⁻¹"},
      {"measurement": "Ka", "setting": "CD40/Fc fusion protein [2]", "result": "7e+08", "unit": "M⁻¹"}
    ]},
    {"binder": "dimeric murine CD40-L (Fc fusion, prepared substantially as in Example 14) (Fc fusion) DKVEEEVNLHEDFVFIKKLKRCNKGEGSLSLLNCEEMRRQFEDLVKDITLNKEEKKENSFEMQRGDEDPQIAAHVVSEANSNAASVLQWAKKGYYTMKSNLVMLENGKQLTVKREGLYYVYTQVTFCSNREPSSQRPFIVGLWLKPSSGSERILLKAANTHSSSQLCEQQSVHLGGVFELQAGASVFVNVTEASQVIHRVGFSSFGLLKL", "values": [
      {"measurement": "Ka", "setting": "CD40/Fc fusion protein [3]", "result": "7e+09", "unit": "M⁻¹"},
      {"measurement": "Ka", "setting": "CD40/Fc fusion protein [4]", "result": "4e+07", "unit": "M⁻¹"}
    ]},
    {"binder": "CD40 ligand/zipper domain fusion protein mutant 194.W (ligand, not shown: a dimerising Fc or GST; small tags and cut ends) MQKGDQNPQIAAHVISEASSKTTSVLQWAEKGYYTMSNNLVTLENGKQLTVKRQGLYYIYAQVTFCSNREASSQAPFIASLWLKSPGRFERILLRAANTHSSAKPCGQQSIHLGGVFELQPGASVFVNVTDPSQVSHGTGFTSFGLLKL", "values": [
      {"measurement": "Ka", "setting": "CD40/Fc fusion protein [5]", "result": "1.8e+09", "unit": "M⁻¹"}
    ]}
  ]
}
